Changes are numbered by the printed parent chain. Numbers in names are those of the source.
T1: NF-κB p50 subunit (endogenous, HEK-293T cells) (UniProt P19838 1-433, limits assumed)
T1 construct: Endogenous protein co-precipitated with HA-IκBα from transfected HEK-293T cells; also called p50 NF-κB
T1 sequence (looked up): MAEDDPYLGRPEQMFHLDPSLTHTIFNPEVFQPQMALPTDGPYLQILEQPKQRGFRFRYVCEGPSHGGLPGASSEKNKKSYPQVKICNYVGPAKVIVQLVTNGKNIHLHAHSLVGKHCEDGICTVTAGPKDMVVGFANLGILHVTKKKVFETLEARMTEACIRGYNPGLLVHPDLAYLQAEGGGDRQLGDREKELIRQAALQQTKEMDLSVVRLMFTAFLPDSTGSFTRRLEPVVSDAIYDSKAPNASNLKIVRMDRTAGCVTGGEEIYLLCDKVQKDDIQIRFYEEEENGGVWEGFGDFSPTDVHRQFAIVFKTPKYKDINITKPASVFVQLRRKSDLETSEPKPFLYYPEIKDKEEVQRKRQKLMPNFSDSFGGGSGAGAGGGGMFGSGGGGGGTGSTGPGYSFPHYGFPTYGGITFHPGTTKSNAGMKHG

B1: IκBα HEE84-86AAA / SOF^NF-κB (SEQ ID NO: 1) (other)
chain: MFQAAERPQEWAMEGPRDGLKKERLLDDRHDSGLDSMKDEEYEQMVKELQEIRLEPQEVPRGSEPWKQQLTEDGDSFLHLAIIAAAKALTMEVIRQVKGDLAFLNFQNNLQQTPLHLAVITNQPEIAEALLGAGCDPELRDFRGNTPLHLACEQGCLASVGVLTQSCTTPHLHSILKATNYNGHTCLHLASIHGYLGIVELLVSLGADVNAQEPCNGRTALHLAVDLQNPDLVSLLLKCGADVNRVTYQGYSPYQLTWGRPSTRIQQQLGQLTLENLQMLPESEDEESYDTESEFTEFTEDELPYDDCVFGGQRLTL
notes: Compose mutant of IκBα, expressed in HEK-293T cells; also called IκBα SOF^NF-κB; H84, E85, E86 to A; not shown: HA tag
B2: IκBα D75A / SOF^PRC2 (SEQ ID NO: 2) (other)
chain: B1 chain with D75A, A84H, A85E, A86E
notes: Single point mutant of IκBα; also called IκBα SOF^PRC2; IkBa D75A; not shown: HA tag
B3: IκBα N108A / SOF^PRC2 (SEQ ID NO: 3) (other)
chain: B1 chain with A84H, A85E, A86E, N108A
notes: Single point mutant of IκBα; also called IκBα SOF^PRC2 mutant N108A; IkBa N108A; not shown: HA tag
B4: IκBα compose mutant H84, E85, E86, N108, Q112 to A (other)
chain: B1 chain with N108A, Q112A
notes: not shown: HA tag

Legend:
[1] = biological target: T1, NF-κB p50 subunit (endogenous, HEK-293T …); assay: PD and Co-IP
[2] = biological target: T2, NF-κB p65 subunit (endogenous, HEK-293T cells) (UniProt Q04206 1-551); assay: PD and Co-IP
T2 construct: Endogenous protein co-precipitated with HA-IκBα from transfected HEK-293T cells; also called p65/NF-κB; p65/RelA

[3] = biological target: T1, NF-κB p50 subunit (endogenous, HEK-293T …); assay: Co-IP of single point mutants, WB
[4] = biological target: T2, NF-κB p65 subunit (endogenous, HEK-293T …); assay: Co-IP of single point mutants, WB
[5] = biological target: T1, NF-κB p50 subunit (endogenous, HEK-293T …); assay: Co-IP from transfected HEK-293T cells, WB
[6] = biological target: T2, NF-κB p65 subunit (endogenous, HEK-293T …); assay: Co-IP from transfected HEK-293T cells, WB

T2 sequence (Q04206 whole entry): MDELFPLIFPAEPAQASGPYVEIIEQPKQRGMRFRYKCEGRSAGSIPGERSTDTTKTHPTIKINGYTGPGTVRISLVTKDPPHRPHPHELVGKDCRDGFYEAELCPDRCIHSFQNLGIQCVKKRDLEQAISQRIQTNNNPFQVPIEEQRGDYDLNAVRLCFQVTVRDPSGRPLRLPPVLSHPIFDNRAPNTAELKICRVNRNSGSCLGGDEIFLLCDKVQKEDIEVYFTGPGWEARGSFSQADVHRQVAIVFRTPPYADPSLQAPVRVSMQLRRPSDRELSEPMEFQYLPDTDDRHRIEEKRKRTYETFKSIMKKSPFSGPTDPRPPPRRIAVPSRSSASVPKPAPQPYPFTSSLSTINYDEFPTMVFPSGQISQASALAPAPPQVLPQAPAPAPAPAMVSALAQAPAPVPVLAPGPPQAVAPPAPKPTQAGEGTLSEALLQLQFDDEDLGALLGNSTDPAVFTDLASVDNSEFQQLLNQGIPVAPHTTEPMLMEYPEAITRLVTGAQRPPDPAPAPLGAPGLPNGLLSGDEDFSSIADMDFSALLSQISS

Row | Binder | binding result [3] | binding result [4] | also measured
1 | B1 | – | – | binding result [1]: binds; binding result [2]: binds
2 | B2 | no binding | no binding | –
3 | B3 | no binding | no binding | –
4 | B4 | – | – | binding result [5]: no binding; binding result [6]: no binding
